Test results from patent US11882829B2, “Fusion proteins and methods for stimulating plant growth, protecting plants, and immobilizing bacillus spores on plants” (Spogen Biotech Inc., priority 2013, dated 2024).

How the values were obtained:
[1] = test system: corn plants at the V5 stage; experiment: Foliar application to corn under heat and water stress (Example 38); type: in vivo; conditions: for Change in plant Height over 2 week stress: foliar spray 1 ml/plant, 32.2° C., watering once per week, compared to water-only control
Corn = Corn growth after BEMD PhoA4 spores with or without polyphosphate (Example 11); type: in vivo; conditions: Additive: Polyphosphate 0.5 mg/pot; corn height at two weeks
[2] = test system: sigma K driven genes in Bacillus cereus family members; conditions: microarray data from Bergman et al., 2008; late sporulation, 300 minutes; cited from earlier work

Molecule: c1ccc2snnc2c1 [Benzothiadiazole (BTH), Benzothiadiazole]
- effect on growth of stressed corn [1]: positive responses
- Change in plant Height over 2 week stress [1]: 7.3%

Molecule: O=C(O)c1ccccc1O [Salicylic Acid]
- effect on growth of stressed corn [1]: positive responses
- Change in plant Height over 2 week stress [1]: 5.8%

Molecule: Polyphosphate
- Growth, Comparison to Water (Corn): 110.8%

B1: BclC (SEQ ID NO: 98) (nucleic acid, listed as Bacillus anthracis)
DNA: TGAAGTATCTAGAGCTAATTTACGCAAAGGAATCTCAGGACAACACTTTCGCAACACCTATATTTTAAATTTAATAAAAAAAGAGACTCCGGAGTCAGAAATTATAAAGCTAGCTGGGTTCAAATCAAAAATTTCACTAAAACGATATTATCAATACGCAGAAAATGGAAAAAACGCCTTATCATAAGGCGTTTTTTCCATTTTTTCTTCAAACAAACGATTTTACTATGACCATTTAACTAATTTTTGCATCTACTATGATGAGTTTCATTCACATTCTCATTAGAAAGGAGAGATTTAATG
- Relative Expression (Fold increase in mRNA) [2]: 14.44 Fold

B2: YjcB (SEQ ID NO: 94): YjcB promoter (B. thuringiensis serovar kurstaki str. HD73) (nucleic acid, listed as Bacillus thuringiensis)
DNA: ATATATTTTCATAATACGAGAAAAAGCGGAGTTTAAAAGAATGAGGGAACGGAAATAAAGAGTTGTTCATATAGTAAATAGACAGAATTGACAGTAGAGGAGA
modifications: expressed or natural sequence
- Relative Expression (Fold increase in mRNA) [2]: 70.56 Fold

B3: BclA adjacent DS Glycosyl transferase promoter 2 (SEQ ID NO: 102): BclA cluster glycosyl transferase operon 2 promoter (nucleic acid, listed as Bacillus thuringiensis)
DNA: ACATAAATTCACCTCCATAAAGCGTTCATTATATAGTAGATGCAAAACCGAAAGAAAATGACACGGACATTTGAATTATTGAAAAGAAATCTTAAACTACTTGAACAATTTAAAAAAATGGAAAGTTTAGTATATGTATAACATATGATTGATTTGGAAGAGGGTGATTA
- Relative Expression (Fold increase in mRNA) [2]: 73.96 Fold

B4: BxpB/ExsFA (SEQ ID NO: 95): BxpB promoter (B. thuringiensis Al Hakam) (nucleic acid, listed as Bacillus thuringiensis)
DNA: AAACTAAATAATGAGCTAAGCATGGATTGGGTGGCAGAATTATCTGCCACCCAATCCATGCTTAACGAGTATTATTATGTAAATTTCTTAAAATTGGGAACTTGTCTAGAACATAGAACCTGTCCTTTTCATTAACTGAAAGTAGAAACAGATAAAGGAGTGAAAAACA
- Relative Expression (Fold increase in mRNA) [2]: 30.25 Fold

B5: ExsY (SEQ ID NO: 91): ExsY promoter (B. thuringiensis serovar konkukian str. 97-27) (nucleic acid, listed as Bacillus thuringiensis)
DNA: TAATTCCACCTTCCCTTATCCTCTTTCGCCTATTTAAAAAAAGGTCTTGAGATTGTGACCAAATCTCCTCAACTCCAATATCTTATTAATGTAAATACAAACAAGAAGATAAGGAGTGACATTAA
modifications: expressed or natural sequence
- Relative Expression (Fold increase in mRNA) [2]: 32.49 Fold

B6: BclA (SEQ ID NO: 85) (nucleic acid, listed as Bacillus anthracis)
DNA: TAATCACCCTCTTCCAAATCAATCATATGTTATACATATACTAAACTTTCCATTTTTTTAAATTGTTCAAGTAGTTTAAGATTTCTTTTCAATAATTCAAATGTCCGTGTCATTTTCTTTCGGTTTTGCATCTACTATATAATGAACGCTTTATGGAGGTGAATTTATG
- Relative Expression (Fold increase in mRNA) [2]: 77.44 Fold

B7: YjcA (SEQ ID NO: 93): YjcA promoter (B. thuringiensis serovar kurstaki str. HD73) (nucleic acid, listed as Bacillus thuringiensis)
DNA: TTAATGTCACTCCTTATCTTCTTGTTTGTATTTACATTAATAAGATATTGGAGTTGAGGAGATTTGGTCACAATCTCAAGACCTTTTTTTTAAATAGGCGAAAGAGGATAAGGGAAGGTGGAATTA
modifications: expressed or natural sequence
- Relative Expression (Fold increase in mRNA) [2]: 64 Fold

B8: InhA (SEQ ID NO: 100): InhA promoter (B. thuringiensis Al Hakam) (nucleic acid, listed as Bacillus thuringiensis)
DNA: TATCACATAACTCTTTATTTTTAATATTTCGACATAAAGTGAAACTTTAATCAGTGGGGGCTTTGTTCATCCCCCCACTGATTATTAATTGAACCAAGGGATAAAAAGATAGAGGGTCTGACCAGAAAACTGGAGGGCATGATTCTATAACAAAAAGCTTAATGTTTATAGAATTATGTCTTTTTATATAGGGAGGGTAGTAAACAGAGATTTGGACAAAAATGCACCGATTTATCTGAATTTTAAGTTTTATAAAGGGGAGAAATG
- Relative Expression (Fold increase in mRNA) [2]: 34.25 Fold

B9: CotY (SEQ ID NO: 97) (nucleic acid, listed as Bacillus anthracis)
DNA: CGCGCACCACTTCGTCGTACAACAACGCAAGAAGAAGTTGGGGATACAGCAGTATTCTTATTCAGTGATTTAGCACGCGGCGTAACAGGAGAAAACATTCACGTTGATTCAGGGTATCATATCTTAGGATAAATATAATATTAATTTTAAAGGACAATCTCTACATGTTGAGATTGTCCTTTTTATTTGTTCTTAGAAAGAACGATTTTTAACGAAAGTTCTTACCACGTTATGAATATAAGTATAATAGTACACGATTTATTCAGCTACGTA
- Relative Expression (Fold increase in mRNA) [2]: 79.21 Fold

B10: Sigma K (SEQ ID NO: 99) (nucleic acid, listed as Bacillus anthracis)
DNA: TATATCATATGTAAAATTAGTTCTTATTCCCACATATCATATAGAATCGCCATATTATACATGCAGAAAACTAAGTATGGTATTATTCTTAAATTGTTTAGCACCTTCTAATATTACAGATAGAATCCGTCATTTTCAACAGTGAACATGGATTTCTTCTGAACACAACTCTTTTTCTTTCCTTATTTCCAAAAAGAAAAGCAGCCCATTTTAAAATACGGCTGCTTGTAATGTACATTA
- Relative Expression (Fold increase in mRNA) [2]: 64 Fold

B11: BclA adjacent US Glycosyl transferase promoter 1 (SEQ ID NO: 101): BclA cluster glycosyl transferase operon 1 promoter (nucleic acid, listed as Bacillus thuringiensis)
DNA: ATTTTTTACTTAGCAGTAAAACTGATATCAGTTTTACTGCTTTTTCATTTTTAAATTCAATCATTAAATCTTCCTTTTCTACATAGTCATAATGTTGTATGACATTCCGTAGGAGGCACTTATA
modifications: expressed or natural sequence
notes: BclA cluster glycosyl transferase operon 1 promoter
- Relative Expression (Fold increase in mRNA) [2]: 72.25 Fold

B12: Rhamnose Promoters (SEQ ID NO: 96): Rhamnose promoter (B. thuringiensis Al Hakam) (nucleic acid, listed as Bacillus thuringiensis)
DNA: ATTCACTACAACGGGGATGAGTTTGATGCGGATACATATGAGAAGTACCGGAAAGTGTTTGTAGAACATTACAAAGATATATTATCTCCATCATAAAGGAGAGATGCAAAG
modifications: expressed or natural sequence
- Relative Expression (Fold increase in mRNA) [2]: 75.69 Fold
